# Laboratory results as given in PMC5148919, “Enhanced production of 2,3-butanediol by engineered Saccharomyces cerevisiae through fine-tuning of pyruvate decarboxylase and NADH oxidase activities” (Biotechnology for Biofuels, 2016).
# B1: K. marxianus Pdc1 (Kluyveromyces marxianus) (protein)
# chain: MSEITLGRYLFERLKQVEVQTIFGLPGDFNLSLLDKIYEVPGMRWAGNANELNAAYAADGYARLKGMACVITTFGVGELSALNGIAGSYAEHVGVLHVVGVPSISSQAKQLLLHHTLGNGDFTVFHRMSSNISETTAMITDINSAPSEIDRCIRTTYISQRPVYLGLPANLVDLKVPASLLETPIDLSLKPNDPEAENEVLETVLELIKDAKNPVILADACCSRHNVKAETKKLIDITQFPAFVTPMGKGSIDEQHPRFGGVYVGTLSSPEVKEAVESADLVLSVGALLSDFNTGSFSYSYKTKNIVEFHSDYIKVRNATFPGVQMKFVLQKLLTKVKDAAKGYKPVPVPHAPRDNKPVADSTPLKQEWVWTQVGKFLQEGDVVLTETGTSAFGINQTHFPNDTYGISQVLWGSIGFTGGATLGAAFAAEEIDPKKRVILFIGDGSLQLTVQEISTMIRWGLKPYLFVLNNDGYTIERLIHGETAQYNCIQSWKHLDLLPTFGAKDYEAVRVATTGEWNKLTTDKKFQENSKIRLIEVMLPVMDAPSNLVKQAQLTASINAKQE
# notes: full-length ORF from genomic DNA, TDH3 promoter multi-copy plasmid in Pdc-deficient S. cerevisiae SOS5; no tag mentioned; ORF ends NAKQE by primer
# B2: ScPdc1 (Saccharomyces cerevisiae S288C) (protein)
# chain: SEITLGKYLFERLKQVNVNTVFGLPGDFNLSLLDKIYEVEGMRWAGNANELNAAYAADGYARIKGMSCIITTFGVGELSALNGIAGSYAEHVGVLHVVGVPSISAQAKQLLLHHTLGNGDFTVFHRMSANISETTAMITDIATAPAEIDRCIRTTYVTQRPVYLGLPANLVDLNVPAKLLQTPIDMSLKPNDAESEKEVIDTILALVKDAKNPVILADACCSRHDVKAETKKLIDLTQFPAFVTPMGKGSIDEQHPRYGGVYVGTLSKPEVKEAVESADLILSVGALLSDFNTGSFSYSYKTKNIVEFHSDHMKIRNATFPGVQMKFVLQKLLTTIADAAKGYKPVAVPARTPANAAVPASTPLKQEWMWNQLGNFLQEGDVVIAETGTSAFGINQTTFPNNTYGISQVLWGSIGFTTGATLGAAFAAEEIDPKKRVILFIGDGSLQLTVQEISTMIRWGLKPYLFVLNNDGYTIEKLIHGPKAQYNEIQGWDHLSLLPTFGAKDYETHRVATTGEWDKLTQDKSFNDNSKIRMIEIMLPVFDAPQNLVEQAKLTAATNAKQ
# notes: full-length ORF from genomic DNA, TDH3 promoter multi-copy plasmid in Pdc-deficient S. cerevisiae SOS5; no tag mentioned
# B3: Pdc5 (Saccharomyces cerevisiae S288C) (protein)
# chain: MSEITLGKYLFERLSQVNCNTVFGLPGDFNLSLLDKLYEVKGMRWAGNANELNAAYAADGYARIKGMSCIITTFGVGELSALNGIAGSYAEHVGVLHVVGVPSISSQAKQLLLHHTLGNGDFTVFHRMSANISETTAMITDIANAPAEIDRCIRTTYTTQRPVYLGLPANLVDLNVPAKLLETPIDLSLKPNDAEAEAEVVRTVVELIKDAKNPVILADACASRHDVKAETKKLMDLTQFPVYVTPMGKGAIDEQHPRYGGVYVGTLSRPEVKKAVESADLILSIGALLSDFNTGSFSYSYKTKNIVEFHSDHIKIRNATFPGVQMKFALQKLLDAIPEVVKDYKPVAVPARVPITKSTPANTPMKQEWMWNHLGNFLREGDIVIAETGTSAFGINQTTFPTDVYAIVQVLWGSIGFTVGALLGATMAAEELDPKKRVILFIGDGSLQLTVQEISTMIRWGLKPYIFVLNNNGYTIEKLIHGPHAEYNEIQGWDHLALLPTFGARNYETHRVATTGEWEKLTQDKDFQDNSKIRMIEVMLPVFDAPQNLVKQAQLTAATNAKQ
# notes: as for B2
# B4: Pdc6 (Saccharomyces cerevisiae S288C) (protein)
# chain: SEITLGKYLFERLKQVNVNTIFGLPGDFNLSLLDKIYEVDGLRWAGNANELNAAYAADGYARIKGLSVLVTTFGVGELSALNGIAGSYAEHVGVLHVVGVPSISAQAKQLLLHHTLGNGDFTVFHRMSANISETTSMITDIATAPSEIDRLIRTTFITQRPSYLGLPANLVDLKVPGSLLEKPIDLSLKPNDPEAEKEVIDTVLELIQNSKNPVILSDACASRHNVKKETQKLIDLTQFPAFVTPLGKGSIDEQHPRYGGVYVGTLSKQDVKQAVESADLILSVGALLSDFNTGSFSYSYKTKNVVEFHSDYVKVKNATFLGVQMKFALQNLLKVIPDVVKGYKSVPVPTKTPANKGVPASTPLKQEWLWNELSKFLQEGDVIISETGTSAFGINQTIFPKDAYGISQVLWGSIGFTTGATLGAAFAAEEIDPNKRVILFIGDGSLQLTVQEISTMIRWGLKPYLFVLNNDGYTIEKLIHGPHAEYNEIQTWDHLALLPAFGAKKYENHKIATTGEWDALTTDSEFQKNSVIRLIELKLPVFDAPESLIKQAQLTAATNAKQ
# notes: as for B2
# Legend:
# [1] = tested on: T1, CtPdc1; test: coupled ADH/NADH assay at […] nm, crude extract, Lineweaver-Burk; assay type: cell-based, Candida viswanathii (printed as Candida tropicalis); settings: pH 6.5 imidazole, 30 °C, 5 mM MgCl2, 0.2 mM TPP, 0.4 mM NADH; pyruvate 1.56-100 mM
# T1 construct: gene PDC1; full-length ORF from genomic DNA, TDH3 promoter multi-copy plasmid in Pdc-deficient S. cerevisiae SOS5; no tag mentioned; ORF ends NAAQE by primer
# [2] = substrate: CC(=O)C(=O)O; test: cells, lysate or membranes; assay type: cell-based, Kluyveromyces marxianus; settings: pH 6.5 imidazole, 30 °C, 5 mM MgCl2, 0.2 mM TPP, 0.4 mM NADH, pyruvate 1.56-100 mM
# [3] = substrate: CC(=O)C(=O)O; test: cells, lysate or membranes; assay type: cell-based, Saccharomyces cerevisiae; settings: pH 6.5 imidazole, 30 °C, 5 mM MgCl2, 0.2 mM TPP, 0.4 mM NADH, pyruvate 1.56-100 mM
Molecule,Km [3] [mM],further results
CC(=O)C(=O)O [pyruvate],,Km [1]: 2.7 mM
B1,,Km [2]: 7.7 mM
B2,4.7,
B3,9.9,
B4,8.2,
